These are literature values, as cited in PMC10673186.

The data set has as its target SIRPα (Homo sapiens) (UniProt P78324).
UniProt P78324, sequence (P78324 31-373): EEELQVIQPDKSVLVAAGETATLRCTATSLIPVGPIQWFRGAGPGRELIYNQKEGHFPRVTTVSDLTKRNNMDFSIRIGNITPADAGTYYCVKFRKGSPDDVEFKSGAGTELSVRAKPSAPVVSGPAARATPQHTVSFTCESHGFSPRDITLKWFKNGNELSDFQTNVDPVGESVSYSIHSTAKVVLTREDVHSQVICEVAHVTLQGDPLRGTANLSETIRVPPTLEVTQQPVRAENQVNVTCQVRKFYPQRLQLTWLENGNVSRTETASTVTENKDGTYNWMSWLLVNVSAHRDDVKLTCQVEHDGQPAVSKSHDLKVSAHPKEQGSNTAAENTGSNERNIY

In general, Kd refers to the equilibrium constant for the complex coming apart. On to CD47 (from UniProt Q08722), for which the Kd was 1000 nM.
